Laboratory results from patent US20220016257A1 (Daiichi Sankyo, published 2022).
Residue numbers refer to the chain shown, from its start.

T1: Recombinant Human CDH6 Fc His chimera (R&D Systems, Inc.) (human, UniProt P55285 54-615)
T1 construct: Bought reagent; Captured on the chip by an anti-His antibody; also called the antigen; not shown: Fc portion of the bought chimera; His tag of the bought chimera
T1 sequence: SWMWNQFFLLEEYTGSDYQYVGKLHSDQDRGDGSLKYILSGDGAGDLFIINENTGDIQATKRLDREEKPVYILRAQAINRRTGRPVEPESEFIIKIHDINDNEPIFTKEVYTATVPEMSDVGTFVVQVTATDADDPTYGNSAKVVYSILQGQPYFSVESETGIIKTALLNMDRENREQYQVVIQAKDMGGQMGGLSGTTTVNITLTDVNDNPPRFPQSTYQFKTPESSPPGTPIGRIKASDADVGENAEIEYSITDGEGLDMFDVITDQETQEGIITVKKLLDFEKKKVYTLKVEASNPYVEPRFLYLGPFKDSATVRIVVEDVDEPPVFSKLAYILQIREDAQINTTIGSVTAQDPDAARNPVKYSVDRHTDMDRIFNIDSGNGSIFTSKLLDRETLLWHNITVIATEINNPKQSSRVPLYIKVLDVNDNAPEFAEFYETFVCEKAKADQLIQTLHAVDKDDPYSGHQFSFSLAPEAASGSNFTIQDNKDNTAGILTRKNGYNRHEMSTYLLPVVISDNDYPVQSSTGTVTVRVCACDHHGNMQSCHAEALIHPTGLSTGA

T2: human CDH6 (full-length, on cells) (human, UniProt P55285 54-790)
T2 construct: also called hCDH6; full-length hCDH6
T2 sequence: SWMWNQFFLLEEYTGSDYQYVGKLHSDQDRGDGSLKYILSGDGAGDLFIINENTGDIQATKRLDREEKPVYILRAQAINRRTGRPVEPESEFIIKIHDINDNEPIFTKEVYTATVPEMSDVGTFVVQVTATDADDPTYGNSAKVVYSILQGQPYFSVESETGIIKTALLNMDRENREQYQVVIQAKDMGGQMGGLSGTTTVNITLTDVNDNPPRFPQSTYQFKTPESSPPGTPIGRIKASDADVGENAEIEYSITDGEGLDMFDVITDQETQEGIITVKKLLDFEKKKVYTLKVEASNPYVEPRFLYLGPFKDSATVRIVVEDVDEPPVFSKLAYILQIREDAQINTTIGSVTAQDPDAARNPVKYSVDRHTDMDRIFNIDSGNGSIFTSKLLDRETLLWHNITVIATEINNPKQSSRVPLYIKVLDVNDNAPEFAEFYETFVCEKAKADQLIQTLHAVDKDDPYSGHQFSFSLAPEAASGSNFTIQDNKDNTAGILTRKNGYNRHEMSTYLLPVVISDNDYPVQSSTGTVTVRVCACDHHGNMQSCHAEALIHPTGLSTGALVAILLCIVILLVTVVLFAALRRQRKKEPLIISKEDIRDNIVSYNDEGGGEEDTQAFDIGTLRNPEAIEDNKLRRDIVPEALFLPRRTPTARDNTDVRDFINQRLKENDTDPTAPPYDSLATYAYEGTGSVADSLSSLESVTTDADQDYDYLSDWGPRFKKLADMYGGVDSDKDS

B1: humanized anti-CDH6 antibody H02L02 (antibody, human IgG1, kappa, V domains shown)
VH: EVQLVQSGAEVKKPGASVKVSCKASGYTFTRNFMHWVRQAPGQGLEWMGWIYPGDGETEYNQKFQGRVTITADRSTSTAYMELSSLRSEDTAVYFCARGVYGGFAGGYFDFWGQGTLVTVSS
VL: DIQMTQSPSSLSASVGDRVTITCKASQNIYKNLAWYQQKPGKAPKLLIYDANTLQTGVPSRFSGSGSGSDFTLTISSLQPEDFATYFCQQYYSGWAFGQGTKVEIKR
notes: hH02 heavy chain and hL02 light chain, human IgG1/kappa; also called H02L02 antibody; humanized hG019
B2: humanized anti-CDH6 antibody H04L02 (antibody, human IgG1, kappa, V domains shown)
VH: B1 VH with E1Q, V37I, N61A, I70L, F95Y
VL: B1 VL
notes: hH04 heavy chain and hL02 light chain, human IgG1/kappa; also called H04L02 antibody; humanized hG019
B3: humanized anti-CDH6 antibody H02L03 (antibody, human IgG1, kappa, V domains shown)
VH: B1 VH
VL: B1 VL with P40L, K42E, A43G, S69T, F87Y
notes: hH02 heavy chain and hL03 light chain, human IgG1/kappa; also called H02L03 antibody; humanized hG019
B4: humanized anti-CDH6 antibody H01L02 (antibody, human IgG1, kappa)
heavy: not shown
light: DIQMTQSPSSLSASVGDRVTITCKASQNIYKNLAWYQQKPGKAPKLLIYDANTLQTGVPSRFSGSGSGSDFTLTISSLQPEDFATYFCQQYYSGWAFGQGTKVEIKRTVAAPSVFIFPPSDEQLKSGTASVVCLLNNFYPREAKVQWKVDNALQSGNSQESVTEQDSKDSTYSLSSTLTLSKADYEKHKVYACEVTHQGLSSPVTKSFNRGEC
notes: hH01 heavy chain and hL02 light chain, human IgG1/kappa; also called H01L02 antibody; humanized hG019
B5: rat anti-CDH6 monoclonal antibody rG019 (antibody, IgG2b, V domains shown)
VH: QVQLQQSGAELVKPGSSVKISCKASGYTFTRNFMHWIKQQPGNGLEWIGWIYCGDGETEYNQKFNGKATLTADRSSSTAYMELSRLTSEDSAVYFCARGVYGGFAGGYFDFWGQGVMVTVSS
VL: DIQMTQSPSLLSASVGDRVTLNCKASQNIYKNLAWYQQKLGEGPKLLIYDANTLQTGIPSRFSGSGSGSDFTLTISSLQPEDVATYFCQQYYSGWAFGGVTNLELKRA
notes: Rat antibody purified from hybridoma supernatant; also called rG019 antibody; clone rG019

What was measured:
[1] = target: T1, Recombinant Human CDH6 Fc His chimera …; test: SPR (Biacore T200), antigen captured by immobilized anti-His antibody, antibody as analyte, steady state affinity model
Protocol: The dissociation constant between the antibody and the antigen (Recombinant Human CDH6 Fc His chimera, R&D Systems, Inc.) was measured by using Biacore T200 (GE Healthcare Biosciences Corp.), according to a capture method, which comprises capturing the antigen as a ligand with the immobilized anti-His antibody and then measuring the dissociation constant using an antibody as an analyte. Approximately 1000 RU of the anti-histidine antibody (His capture kit, GE Healthcare Biosciences Corp.) was covalently bound to sensor chip CM5 (GE Healthcare Biosciences Corp.) by the amine coupling method. The antibody was also immobilized onto reference cells in the same manner as above. HBS-P+(10 mM HEPES pH 7.4, 0.15 M NaCl, 0.05% Surfactant P20) supplemented with 1 mM CaCl₂ was used as a running buffer. The antigen was added onto the anti-histidine antibody-immobilized chip for 60 seconds, and a dilution series solution (0.391 to 100 nM) of the antibody was then added at a flow rate of 30 μl/min for 300 seconds. Subsequently, the dissociation phase was monitored for 600 seconds. As a regeneration solution, a glycine solution (pH 1.5) supplemented with 5 M MgCl₂ was added twice at a flow rate of 10 μl/min for 30 seconds. A Steady State Affinity model in analysis software (BIAevaluation software, version 4.1) was used in data analysis, and the dissociation constant (KD) was calculated.

[2] = target: T2, human CDH6 (full-length, on cells); test: flow cytometry, 293T cells transiently transfected with pcDNA3.1-hCDH6 (open) against untransfected 293T cells (shaded), antibody 10 ng/mL, anti-rat IgG-FITC
Protocol: The human CDH6-binding activity of the rat anti-CDH6 antibody produced in Example 1)-7 was evaluated by flow cytometry. […] The cells were cultured overnight under conditions of 37° C. and 5% C02, treated with TrypLE Express (Thermo Fisher Scientific Inc.), and thereafter, a cell suspension was prepared. […] Thereafter, the cells were suspended by the addition of the rat anti-CDH6 monoclonal antibody (clone No: rG019), which had been prepared in Example 1)-7, or rat IgG control (R&D Systems, Inc.) (final concentration: 10 ng/mL). The cells were left standing at 4° C. for 1 hour. The cells were washed twice with PBS supplemented with 5% FBS, and then suspended by the addition of Anti-Rat IgG (whole molecule)-FITC antibody produced in rabbit (Sigma-Aldrich Co. LLC) that had been 50-fold diluted with PBS supplemented with 5% FBS. The cells were left standing at 4° C. for 1 hour. The cells were washed twice with PBS supplemented with 5% FBS, followed by detection using a flow cytometer (FC500; Beckman Coulter, Inc.). The data was analyzed using FlowJo (TreeStar, Inc.). In the histogram of FIG. 1, the abscissa depicts FITC fluorescence intensity indicating the amount of the antibody bound, and the ordinate depicts a cell count. […] The rat IgG control binds to neither of the cells.

Binder	Kd [1] [nM]	binding result [2]
B1	1.1	
B2	1.1	
B3	1.4	
B4	1.5	
B5		binds
